Data published in publication doi:10.1101/871707 (bioRxiv, 2019).

Molecular target: the molecule itself
Test: cryo-EM structure

B1: human SEMA6A soluble recombinant extracellular domain (receptor)
chain: GFPEDSEPISISHGNYTKQYPVFVGHKPGRNTTQRHRLDIQMIMIMNGTLYIAARDHIYTVDIDTSHTEEIYCSKKLTWKSRQADVDTCRMKGKHKDECHNFIKVLLKKNDDALFVCGTNAFNPSCRNYKMDTLEPFGDEFSGMARCPYDAKHANVALFADGKLYSATVTDFLAIDAVIYRSLGESPTLRTVKHDSKWLKEPYFVQAVDYGDYIYFFFREIAVEYNTMGKVVFPRVAQVCKNDMGGSQRVLEKQWTSFLKARLNCSVPGDSHFYFNILQAVTDVIRINGRDVVLATFSTPYNSIPGSAVCAYDMLDIASVFTGRFKEQKSPDSTWTPVPDERVPKPRPGCCAGSSSLERYATSNEFPDDTLNFIKTHPLMDEAVPSIFNRPWFLRTMVRYRLTKIAVDTAAGPYQNHTVVFLGSEKGIILKFLARIGNSGFLNDSLFLEEMSVYNSEKCSYDGVEDKRIMGMQLDRASSSLYVAFSTCVIKVPLGRCERHGKCKKTCIASRDPYCGWIKEGGACSHLSPNSRLTFEQDIERGNTDGLGDCHNSFVALNGHSSSLLPSTTTSDSTAQEGYESRGGMLDWKHLLDSPDSTDPLGAVSSHNHQDKKGVIRESYLKGHDQLVPVT
notes: also called SEMA6A rECD; recombinant SEMA6A ectodomain
B1 was tested, and the “stoichiometry N” value was 2.
